{"source": "paper PMC9080259", "about": "“Dual-cycle immobilization to reuse both enzyme and support by reblossoming enzyme–inorganic hybrid nanoflowers” (RSC Advances, 2018)", "proteins": {"B1": {"name": "Papain (Carica papaya) (protein)", "chain": "IPEYVDWRQKGAVTPVKNQGSCGSCWAFSAVVTIEGIIKIRTGNLNEYSEQELLDCDRRSYGCNGGYPWSALQLVAQYGIHYRNTYPYEGVQRYCRSREKGPYAAKTDGVRQVQPYNEGALLYSIANQPVSVVLEAAGKDFQLYRGGIFVGPCGNKVDHAVAAVGYGPNYILIKNSWGTGWGENGYIRIKRGTGNSYGVCGLYTSSFYPVKN"}, "B2": {"name": "Lipase B from Candida antarctica (CALB) (Moesziomyces antarcticus) (protein)", "chain": "LPSGSDPAFSQPKSVLDAGLTCQGASPSSVSKPILLVPGTGTTGPQSFDSNWIPLSTQLGYTPCWISPPPFMLNDTQVNTEYMVNAITALYAGSGNNKLPVLTWSQGGLVAQWGLTFFPSIRSKVDRLMAFAPDYKGTVLAGPLDALAVSAPSVWQQTTGSALTTALRNAGGLTQIVPTTNLYSATDEIVQPQVSNSPLDSSYLFNGKNVQAQAVCGPLFVIDHAGSLTSQFSYVVGRSALRSTTGQARSADYGITDCNPLPANDLTPEQKVAAAALLAPAAAAIVAGPKQNCEPDLMPYARPFAVGKRTCSGIVTP"}, "B3": {"name": "Lipase from Thermomyces lanuginosus (TLL) (Thermomyces lanuginosus) (protein)", "chain": "EVSQDLFNQFNLFAQYSAAAYCGKNNDAPAGTNITCTGNACPEVEKADATFLYSFEDSGVGDVTGFLALDNTNKLIVLSFRGSRSIENWIGNLNFDLKEINDICSGCRGHDGFTSSWRSVADTLRQKVEDAVREHPDYRVVFTGHSLGGALATVAGADLRGNGYDIDVFSYGAPRVGNRAFAEFLTVQTGGTLYRITHTNDIVPRLPPREFGYSHSSPEYWIKSGTLVPVTRNDIVKIEGIDATGGNNQPNIPDIPAHLWYFGLIGTCL"}}, "assay_in_all_cases": "purified protein", "key": {"purified protein [1]": {"substrate": "CCOC(=O)[C@H](CCCNC(=N)N)NC(=O)c1ccccc1", "conditions": "free enzyme, 37 °C, pH not told, substrate of the kinetics taken from the activity assay"}, "purified protein [2]": {"substrate": "CC(=O)Oc1ccc([N+](=O)[O-])cc1", "format": "biochemical, Moesziomyces antarcticus", "conditions": "free enzyme, PBS 100 mM pH 6.5, 37 °C, substrate of the kinetics taken from the activity assay"}, "purified protein [3]": {"substrate": "CC(=O)Oc1ccc([N+](=O)[O-])cc1", "format": "biochemical, Thermomyces lanuginosus", "conditions": "free enzyme, PBS 100 mM pH 6.5, 37 °C, substrate of the kinetics taken from the activity assay"}}, "data": [{"protein": "B1", "values": [{"measurement": "Km", "setting": "purified protein [1]", "result": "1.01 ± 0.05", "unit": "mM"}, {"measurement": "kcat", "setting": "purified protein [1]", "result": 2.67, "unit": "s⁻¹"}, {"measurement": "kcat/Km", "setting": "purified protein [1]", "result": 2670, "unit": "M⁻¹ s⁻¹"}]}, {"protein": "B2", "values": [{"measurement": "Km", "setting": "purified protein [2]", "result": "6.36 ± 0.321", "unit": "mM"}, {"measurement": "kcat", "setting": "purified protein [2]", "result": "56.8 ± 2.73", "unit": "s⁻¹"}, {"measurement": "kcat/Km", "setting": "purified protein [2]", "result": "8920 ± 23", "unit": "M⁻¹ s⁻¹"}]}, {"protein": "B3", "values": [{"measurement": "Km", "setting": "purified protein [3]", "result": "16.58 ± 0.793", "unit": "mM"}, {"measurement": "kcat", "setting": "purified protein [3]", "result": "29.3 ± 1.26", "unit": "s⁻¹"}, {"measurement": "kcat/Km", "setting": "purified protein [3]", "result": "1770 ± 8", "unit": "M⁻¹ s⁻¹"}]}]}
